How the values were obtained:
[1] = target: S-Trimer (ectodomain of wild-type SARS-CoV-2 Spike protein fused to Trimer-Tag) (SARS-CoV-2 | human) (UniProt P0DTC2); experiment: negative-stain electron microscopy; S-Trimer 25 μg/mL in PBS adjusted to pH 5.5; 1% uranyl formate pH 4.0; FEI Tecnai spirit, 120 KeV
[2] = target: S-Trimer (ectodomain of wild-type SARS-CoV-2 Spike protein fused to Trimer-Tag) (SARS-CoV-2 | human) (UniProt P0DTC2); experiment: SDS-PAGE under non-reducing and reducing conditions
[3] = target: ACE2-Fc (soluble human ACE2 fused to human IgG Fc) (human) (UniProt Q9BYF1); experiment: BLI; ForteBio Octet QKe; ACE2-Fc (10 µg/mL) immobilized on Protein A biosensors; 2-fold serial dilutions of S-Trimer (22.5–36 µg/mL in PBS); KD by steady state analysis, 1:1 binding model
Chain of ACE2-Fc (soluble human ACE2 fused to human IgG Fc) (human) (Q9BYF1 18-738): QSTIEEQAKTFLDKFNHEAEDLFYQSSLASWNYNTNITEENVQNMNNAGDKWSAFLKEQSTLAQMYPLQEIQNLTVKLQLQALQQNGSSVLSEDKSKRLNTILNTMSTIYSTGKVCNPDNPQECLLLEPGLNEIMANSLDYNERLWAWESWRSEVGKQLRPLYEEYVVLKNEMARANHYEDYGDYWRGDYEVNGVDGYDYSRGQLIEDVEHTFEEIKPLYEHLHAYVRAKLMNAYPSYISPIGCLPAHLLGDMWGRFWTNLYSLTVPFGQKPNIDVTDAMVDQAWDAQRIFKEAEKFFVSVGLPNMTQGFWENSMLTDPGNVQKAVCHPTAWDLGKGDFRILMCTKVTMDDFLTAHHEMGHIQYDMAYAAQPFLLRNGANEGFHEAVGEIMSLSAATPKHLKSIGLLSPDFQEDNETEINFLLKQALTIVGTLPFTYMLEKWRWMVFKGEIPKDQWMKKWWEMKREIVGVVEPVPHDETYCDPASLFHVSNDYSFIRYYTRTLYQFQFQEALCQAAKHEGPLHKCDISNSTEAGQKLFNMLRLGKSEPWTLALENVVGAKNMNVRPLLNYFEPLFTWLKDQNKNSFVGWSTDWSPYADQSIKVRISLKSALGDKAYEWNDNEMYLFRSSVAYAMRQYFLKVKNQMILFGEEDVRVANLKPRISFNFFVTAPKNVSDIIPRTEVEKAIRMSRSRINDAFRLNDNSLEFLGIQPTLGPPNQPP

“S-Trimer (ectodomain of wild-type SARS-CoV-2 Spike protein fused to Trimer-Tag) (from UniProt P0DTC2;P02452)” was tested, and the stoichiometry N [1] was 3, the stoichiometry N [2] was 3 and the Kd [3] was 1.33 nM.

Source: paper PMC7921634
